Reference: the DeepSol protein solubility set

assay: soluble on expression in E. coli; label from the status in PepcDB or PDB records

**Q.** For “MGSDKIHHHHHHMKPGFVDPVFDAQAVFRAALLATAYPGRVVPLDRTLTAPRPFSSATAALCLSLMDFETPAWLDNSLDCGELTAWLRFHCSLPLTETAGEARFAIVSDPANLPRLCELHPGDAEYPDRSTTLIIQVPSFTDGPTTTWTGPGVNGSIPVGIAGLPFWFWADWDLNSELYPRGIDVVFTSGNAVIGLPRTIKVEA”, which “soluble on expression in E. coli” value is on record?
**A.** not soluble

**Q.** With “MGSDKIHHHHHHMKPITVLVSVDSNSVLMGARHFLNYFRDLVKEHNLEDTVDVLETGSMGIYPEGVIVSVLPDGVFYVVRNELDVRRIFEEHILKGRRVLDLEIPESQIKGTVEVEKVAEETRIVLKNVGEIDPTRIEEYIARDGYFALAKALQMEPGEIIEEIKRSGLRGRGGAGFPTGLKWEFTYKASADQKYVLCNADEGEPGTFKDRLIMEGDPHSLIEGMIIAGYAVGATKGYIYIRGEYHSSIEILKKAVEQAYEYGFLGENILGSGFNFDLKIRLGAGAYVAGEETALIESIEGKPARPRLKPPYPPTFGLFGKPTVVNNVETFVNVPRIIMNGAEWFKKFGTESSPGTKVFSLVGNVVRKGIVEVPMGVTVRDLIFKFGGGIEGGRKLKVVQTGGSAGTFIGPDKLDVPLDFDSYAKYGVSLGSGVILVADETHCVVDLALTVMRFFEHESCGKCTPCREGTRMIVNILERISRGEGKKEDLDTLREIARNAGETSFCGLGQSIPVPLLSIVDNFEEEFKAHIGADKCPVGVCEFKKKKEKKKIGVRKP” as the sequence, how does the “soluble on expression in E. coli” value read?
**A.** not soluble

**Q.** With “MGSDKIHHHHHHMKPRACVVVYPGSNCDRDAYHALEINGFEPSYVGLDDKLDDYELIILPGGFSYGDYLRPGAVAAREKIAFEIAKAAERGKLIMGICNGFQILIEMGLLKGALLQNSSGKFICKWVDLIVENNDTPFTNAFEKGEKIRIPIAHGFGRYVKIDDVNVVLRYVKDVNGSDERIAGVLNESGNVFGLMPHPERAVEELIGGEDGKKVFQSILNYLKR” as the sequence, how does the “soluble on expression in E. coli” value read?
**A.** not soluble

**Q.** With “MGSDKIHHHHHHMKPRNESVILLHGLARTRGSMEKMEHALSAKGYQCVNLGYPSTQFDIETLAGEHIDKALSQCRGERVHFVTHSMGGILVRQYLSQHTLPALGRVVMLGPPNRGSEVVDSLKDFPGFKWINGPAGLQLGTEEESVPNRLGKAHFEVGVIAGSRSVNLLLSTLLPWPNDGKVSVARTHLEGMRDHISLAVTHPFMMNNPSVIAQTAYFLAHGRFQR” as the sequence, how does the “soluble on expression in E. coli” value read?
**A.** not soluble

**Q.** With “MGSDKIHHHHHHMKQGIEFIKFNPTQNMTILVETNDPIGEYKHIAEKIMSYDSVYAEQVGFIEKPLNRQAAAHLEMAGGEFCGNACMALAALIASEKGLRPTELMEIVLEVSGTDNLVMCQVERTLDEFHCQVTMPLPKQIEQKIVKYDGSEMNLIIVRYQEFIHIVIEVDDFNKIVREKAQSLAKLLGVTLGTNLIGILLYKSNTSELAPLIFVPDLDSMIWERGCGSGTASLGAYLAWKNKKEIVAKIKQPGGTIQVIATCEEEKLTSLKIEGSVSIVARGKAFIDV” as the sequence, how does the “soluble on expression in E. coli” value read?
**A.** not soluble

**Q.** For “MGSDKIHHHHHHMKQQYTATVVMATYNGEKNILEQLDSLKNQSKKIDEVLIWDDCSTDSTVKIIENFISENKLGETWHLQINTENLGWRKNFFNLLNAATKEIVFTCDQDDIWDASKIEVMCEAFANTDVKVLVSDYTELVEPGGLAEELKKIDSVKLPNQKAEQIIFNENNLFLRRPGCVYAIRKSFIANVNLYASEMENPVHDMAMWGSSLLSDGLYIVREELIRWRKHGQSSFKKEIDLAKKQNHFEERLNTLRRRLQRTEAAKNYLNNQPHVEEFEYKDKVLSNLIKELNMRVSLLERKKIIPILCAFFKYHHKFYFSTDIYHIMKYKIRK”, which “soluble on expression in E. coli” value is on record?
**A.** not soluble

**Q.** Which “soluble on expression in E. coli” value does the source give for “MGSDKIHHHHHHMKRENLHQPFEISFSELAESLLKEHEHTFFELVYILSGTGIQWINNNMFPYHDGHLFMITPGDTHSFEIHTTTKFVDIKFNDIYIHSSVFGAENIQRLEFILQHANHQPGCILRNKVDKLLVKPMIEAIIREYINRNLYSKEIITQIINTIIIVVARNIAMFLPEQVDECSEDKSLDILQYIQANIYKTGKIRAKDISQHFGISENYLGRYIKKHTNETMQQYILNYKLKLVENRLLHSQMRICEIVEELGFTDESHLNKFFKKYRGCSPSNFRKNNLK” here?
**A.** not soluble

**Q.** Which “soluble on expression in E. coli” value does the source give for “MGSDKIHHHHHHMKRRELLVLGGLSTIAAGMGRQWFQPVSAQAITPLPASDRPLDLRFIAVADTGTGARGQYDVAAAMERYRRANPYKLAVLAGDNIYNNGEIEKIQAVFERPYAPLLKSGVKFRAVLGNHDIRTNNGNDQVRYPGFNMTGRYYQFQEGPVAFFALDTNGNADWNKQLTWLDRALQASNAPWKVVFGHHPIYSSGFYGVNRTLLGRLVPLFKRHGVQLYISGHDHSYERTQPIDGTTYLIVGAGAGLRPVGRSSWTAQSASTLSFAGLEVYGNELRIQTFDKDSRLIDQGQIFA” here?
**A.** not soluble

**Q.** Which “soluble on expression in E. coli” value does the source give for “MGSDKIHHHHHHMKRRLGLKLYYRRRGHVKPSLLFVIQSHKGEFVKDRLEEYLNNLKIEKKPDSRESWDSYFMRIARMVSERSTCVHRKVGAVIVKDHRILATGYNQPPSKFPHCNEIGCIRDDLEINSGEHQEICYALHAEQNALMQAAKFGIAVNGATIYVTHKPCSICARLIVNAGIKRVVYEKDYPDPLTDFFFKFTGVESVRFVGDEM” here?
**A.** not soluble

**Q.** Which “soluble on expression in E. coli” value does the source give for “MGSDKIHHHHHHMKRTPLFEKHVELGAKMVDFAGWEMPLYYTSIFEEVMAVRKSVGMFDVSHMGEFLVKGPEAVSFIDFLITNDFSSLPDGKAIYSVMCNENGGIIDDLVVYKVSPDEALMVVNAANIEKDFNWIKSHSKNFDVEVSNISDTTALIAFQGPKAQETLQELVEDGLEEIAYYSFRKSIVAGVETLVSRTGYTGEDGFELMLEAKNAPKVWDALMNLLRKIDGRPAGLGARDVCRLEATYLLYGQDMDENTNPFEVGLSWVVKLNKDFVGKEALLKAKEKVERKLVALELSGKRIARKGYEVLKNGERVGEITSGNFSPTLGKSIALALVSKSVKIGDQLGVVFPGGKLVEALVVKKPFYRGSVRREV” here?
**A.** not soluble

**Q.** For “MGSDKIHHHHHHMKRTYESGDKMIHTRGKAEGLREKLATILSQDYKELAVQDLKVIGTGVQNIVFRGDSEKGALAFRVPWEREVENINEDLFNSRISLQKEAELSKYCHSKGISVPRIHGLHLSAELDFLISDCVYTDHMPISAHKIGELVSKLHSMPIDDLHYEQNIREPISKYIAERIVKRIEGFNTITNCGMKLPDTKTIEHILSTADHEKSLLHMDIRPANLIGYNGEVKAIVDWDNALIGHPLLELMRIAETNEVSWEEFKDGYKNDSIFNATSHIVSLFYRLDTAVMLANLFIAHLKIEDKGVFYKERVKAIHHEIYKSL”, which “soluble on expression in E. coli” value is on record?
**A.** not soluble

**Q.** Which “soluble on expression in E. coli” value does the source give for “MGSDKIHHHHHHMKSVCLKITSLISLASRITTGLSLMSVMLASPLAVAQMGKHDALLLHAARVFDGHRMRTNTSVQVVNGKVTQIGPRGSFAPDNAKVIDLGDATILPGFIELHAHLSFQHVPADTVLKHGITTIRDVGGPVHKPYGGNGTLRMLTSGPIITAPGGYPIPLTGEKNIATPVSTEKEARETVRNLIDAGAVVIKIALEPGGEPGAPWSCGHAHVHHHNHAAAGNHAHHAQPNHEPPNHEAANDAHSSHPHPNTGLGTAWPLLAERVVKAIVDEAHVNKRRVTAHIAEVKGAEIAINAGIDEWAHVPCDIIPEPLLKKAVSQGVRIVTTLDTLSKCPGVAHNTRVWREQGGELLYGAEIAHPDVPRGIDAQELMYMMQMGNMETLEVLRAATSKAGEHLGLPLLGTLLPGAPADVIAIKGDPTHNLKNLEYPDLVISGGEIVLNNFPAAF” here?
**A.** not soluble

**Q.** For “MGSDKIHHHHHHMKTCWQILEIESTTQIDIIRQAYLARLPLCHPETDPQGFKALRQAYEEALRLAVNPVEEADDEEKDATAEHEILRAFRTLLDSESDRFQPSAWQKFIQQLNTWNMEDVDQLRWPLCAIAIEARYLSLNCASLLAERLNWHSFNDSEGMDEEEREAFLEAIQAGDCFDFLSLLEYPVALQNQTVEYYFALERCCRYHPDYVTAFLAMEGPWFIPDDAKLHRKLLRWYSSVQTGMVELIPVAKQWQAEEPESEDARYYQCAQRLYCGEGESLLADLGAYWESYPSTQADNLLLQWSKRHCPDYFALLVMVIEARSMVDAQGQPLKYVPGESARTRLLWAEILHSGKLSPLGQSFIESLFFKRKAWAWWKSRVGSETEEDSPLLDLYRVAEQVVLEAFPKQEMLARLNTRLEGGDAHPLEAIITRMLLTKVKLEPEDEDVDEPTPENHEEKNDEGEKPQSITSIIKISLTVLVIGYALGKIAMLFS”, which “soluble on expression in E. coli” value is on record?
**A.** not soluble

**Q.** For “MGSDKIHHHHHHMKTDTEWLLCDFHVHTNMSDGHLPLGEVVDLFGKHGVDVVSITDHIVDRRTLEQRKRNGEPLGAITEDKFQDYLKRLWREQKRAWEEYGMILIPGVEITNNTDLYHIVAVDVKEYVDPSLPVEEIVEKLKEQNALVIAAHPDRKKQDEEHLSWYLWANMERFKDTFDAWEIANRDDLFNSVGVKKYRYVANSDFHELWHVYSWKTLVKSEKNIEAIKEAIRKNTDVAIYLMRKNRLSSLSDVI”, which “soluble on expression in E. coli” value is on record?
**A.** soluble

**Q.** For “MGSDKIHHHHHHMKTKMPEMLSFISEEAVSRKMTSEEIAAHFGYDKHHFSRKFKEINGFSVVEFLSSLKVEKAIIELNEEKRILDLQEHSGFESSGSFTNTFKKYTGSSPRKYKTEMNDIFYDMKRFENDNKDKSIAHFQEKNDSFCTVTIDVPDEFEKGIIFIGLFRTLIPNHMPISGLATKNLIGNQLKNIPSGDYYLLACAISQSNNILSYFNLSNSLRGKEDEKLSFPKCSGKHYAIKLREPIPEDPPILANVGKILISCLKNTI”, which “soluble on expression in E. coli” value is on record?
**A.** not soluble

**Q.** For “MGSDKIHHHHHHMKTLLGIIAGKAAQSILTKLGRGSTYPGRLALACDKDILKDLSKDYDIVVVTGTNGKTLTTALTVGILKEAFGEIITNPSGANMITGITSTFLAAKKGKSERQIAVLEIDEASLPRITTYLKPSLFVYTNIFRDQMDRYGEIYTTYQMIVDGARNAPKATILANGDSPIFSSKDIVNPVQYYGFDTAKHAPQLAHYNTEGILCPKCEHILQYRLNTYANLGDFVCLNCQFQRPTLDYQLTELTAITHQSSEFVIDGQNYKINVGGLYNIYNALAAVSVAEFFGVSPEKIKAGFNKSKAVFGRQETFTVGDKSCTLILIKNPVGASQALEMIQLADYPFSLSVLLNANYADGIDTSWIWDANFELITQMPITEINAGGVRHSEIARRLRVTGFDDTKIKQAEKLEQIIETIEKQEAKHAYILATYTAMLEFRSLLADRHVVEKEMI”, which “soluble on expression in E. coli” value is on record?
**A.** not soluble

**Q.** For “MGSDKIHHHHHHMKTQSQDRWFIWQLSEELEAKIRYREYGPPDSPFTPLLFIHGYGGMIEHWNDNIPSFDDRYRIYAMDLIGFGQSGKPNVRYSLALFAAQIKAFMHLKKLEKVTLVGHSMGAASSIIYAHHNPDSVRALVLANPSGLYGDSMDGVAKIFFGLVGSPLIGEMLFAAFANPVGVSQSLTPTYYNQKKVDLNLINQFSRPLQDRGAIFSYLSPSKRPHDFMLDGLKPCNYKGDAWLLWGAEDTALPPHKIIPEFQELLPQAGAYIIPKAGHCIHHDAHETFNNRLAQLLQRLE”, which “soluble on expression in E. coli” value is on record?
**A.** not soluble

**Q.** With “MGSDKIHHHHHHMKTRDKIIQASIELFNEQGERNVTTNHIAAHLAISPGNLYYHFRNKEDIILSIYEEYARSLLLETLPKVSSEVKPLDSLILYMDSVFQTTMKFRFFYSNLPVLLDKNPILREKYVEVQQSISERVSQLLISLRAADYIDFNDDELADIVSILRLINTFWVSFHQTQTIVNEVNDSVFYQGVLKILVILRPYTKAHAISELNHARDVYQQRYREEAETA” as the sequence, how does the “soluble on expression in E. coli” value read?
**A.** not soluble
